Test results from the supplement of paper PMC10201428.
± gives the standard deviation of the averaged measurements.

B1: library; a variant is named by its letters at N, in order (parent)
chain: ACATTTGTTGATACAACCATAAAATGATAATTACACCCATAAATTGATAATTATCACACCCANNNNNNNNNNNNNNCTCTGATCATAGTCAGACCAACATTGCTACGACCCGTATTCGCACCGACAC
B2: library; a variant is named by its letters at N, in order (parent)
chain: AATGTTGTTGATGCAACCATAAAGTGATATTTAATAATTATTTATAATCAGCAACTTAACCACAAAACAACCATATATTGATATNTCACAAAACAACCATAANTTGATATTTTTGTGAATCGAGTATTTCAGCAAAACTACTGCAGTAAGAA

How the values were obtained:
Settings in all cases: with VchCAST RNA-guided transposition machinery (E. coli BL21(DE3) host, lacZ target)
[1] = variants of: B1; assay: relative integration efficiency (T-RL orientation) vs wild-type transposon end (log2 (normalized fold change)); transposon end mutated: right end (5 bp flank + 75 bp right end); higher = more efficient transposition
Procedure: (§1)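 Pooled, barcoded VchCAST (Tn6677) mini-transposon donor libraries; each variable transposon-end sequence sits in a fixed pDonor mini-transposon context (10-bp barcode and cargo not included). Left- or right-end libraries were co-transformed with pEffector (TniQ-Cascade, TnsABC, lacZ crRNA, T7, 0.1 mM IPTG) into E. coli BL21(DE3) and grown 18 h at 37 C. T-LR and T-RL junction amplicons were sequenced; output/input barcode fold change was normalised to the mean of four wild-type barcodes and log2-transformed. Two biological replicates; zero-count/undetected variants carry floor values (-10 / -15), censored here. Barcode uncoupling by PCR recombination adds noise.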

[2] = variants of: B1; assay: relative integration efficiency (T-LR orientation) vs wild-type transposon end (log2 (normalized fold change)); transposon end mutated: right end (5 bp flank + 75 bp right end); higher = more efficient transposition
Procedure: as §1

[3] = variants of: B2; assay: relative integration efficiency (T-RL orientation) vs wild-type transposon end (log2 (normalized fold change)); transposon end mutated: left end; higher = more efficient transposition
Outline: (§2)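 Barcode abundances in input plasmids and in genomic integration junctions were obtained by PCR amplification and Illumina sequencing. These came from E. coli BL21(DE3) co-transformed with a T7-driven effector plasmid and a pUC57 donor carrying 1549 left-end or 1849 right-end transposon variants, then plated with 0.1 mM IPTG at 37°C for 18 h. Relative integration efficiency is the output/input fold change, normalised to reference barcodes and log-transformed.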

[4] = variants of: B2; assay: relative integration efficiency (T-LR orientation) vs wild-type transposon end (log2 (normalized fold change)); transposon end mutated: left end; higher = more efficient transposition
Outline: as §2

Row | Variant | relative integration efficiency (log2) [1] | relative integration efficiency (log2) [2] | relative integration efficiency (log2) [3] | relative integration efficiency (log2) [4]
1 | AAAATTGATATTGC | -0.0332 ± 0.012 | 0.998 ± 0.085 |  | 
2 | TAAATTGATATTGC A27G | -0.495 ± 0.11 | -0.445 ± 0.25 |  | 
3 | TAAATTGATATTGC A27C | -0.753 ± 0.18 | -0.281 ± 0.16 |  | 
4 | TAAATTGATATTGC A27T | -0.915 ± 0.17 | -0.49 ± 0.05 |  | 
5 | TAAATTGATATTGC A30C | -0.623 ± 0.12 | -0.195 ± 0.17 |  | 
6 | TAAATTGATATTGC A30T | -0.464 ± 0.16 | -0.0553 ± 0.55 |  | 
7 | TAAATTGATATTGC A30G | -0.795 ± 0.13 | -0.2 ± 0.08 |  | 
8 | TAAATACTAATTGC | -0.376 ± 0.27 | 2.61 ± 0.13 |  | 
9 | TAAATTGATATTGC C17T | 7.24e-05 ± 0.068 | -0.744 ± 0.39 |  | 
10 | TAAATTGATATTGC C17G | -0.0518 ± 0.013 | -0.402 ± 0.0041 |  | 
11 | TAAATTGATATTGC C17A | -0.124 ± 0.042 | -0.331 ± 0.098 |  | 
12 | TAAATTGATATACC | -0.223 ± 0.13 | 0.207 ± 0.58 |  | 
13 | TAAATTAATATTGC | -0.319 ± 0.15 | 1.63 ± 0.083 |  | 
14 | TAAATTGATATTGA C77A | 0.00362 ± 0.0095 | 0.066 ± 0.4 |  | 
15 | TAAAGTGATATTGC | 0.000666 ± 0.021 | 0.119 ± 0.27 |  | 
16 | TAAATTGATATGGC | 0.087 ± 0.065 | 0.317 ± 0.14 |  | 
17 | TAAATTGAATTTGC | -0.179 ± 0.17 | 1.16 ± 0.42 |  | 
18 | TAAATTGATATTGC A41T | -0.0667 ± 0.018 | -0.148 ± 0.022 |  | 
19 | TAAATTGATATTGC A41C | -0.815 ± 0.047 | -0.78 ± 0.23 |  | 
20 | TAAATTGATATTGC A41G | -0.104 ± 0.45 | -0.399 ± 1.1 |  | 

Row | Variant | relative integration efficiency (log2) [1] | relative integration efficiency (log2) [2] | relative integration efficiency (log2) [3] | relative integration efficiency (log2) [4]
21 | TAAATTGATATTGC A53C | -0.408 ± 0.19 | 0.07 ± 0.052 |  | 
22 | TAAATTGATATTGC A53G | -0.385 ± 0.25 | -0.269 ± 0.048 |  | 
23 | TAAATTGATATTGC A53T | -0.33 ± 0.038 | -0.318 ± 0.48 |  | 
24 | TAAAGTGATATTTA C59A | -0.094 ± 0.095 | -0.17 ± 0.3 |  | 
25 | TAAACTGATATTGC | -0.0927 ± 0.037 | 0.318 ± 0.14 |  | 
26 | TAAATTCTTATTGC | -0.485 ± 0.094 | 2.36 ± 0.24 |  | 
27 | TAAATTGAGCGGGC | -0.15 ± 0.012 | 2.13 ± 0.086 |  | 
28 | TAAATTGAATAAGC | -0.554 ± 0.076 | 1.55 ± 0.079 |  | 
29 | TAAATTGATATTGC A13G | 0.209 ± 0.06 | 0.173 ± 0.33 |  | 
30 | TAAATTGATATTGC A13T | 0.116 ± 0.008 | 0.0619 ± 0.48 |  | 
31 | TAAATTGATATTGC A13C | -0.236 ± 0.083 | -0.613 ± 0.75 |  | 
32 | TAAATTGATATTGC A29T | -0.372 ± 0.011 | 0.436 ± 0.063 |  | 
33 | TAAATTGATATTGC A29C | -0.793 ± 0.055 | -0.254 ± 0.12 |  | 
34 | TAAATTGATATTGC A29G | -0.169 ± 0.087 | -0.293 ± 0.074 |  | 
35 | TAAATTGATATTGC A23C | 0.346 ± 0.047 | 0.198 ± 0.087 |  | 
36 | TAAATTGATATTGC A23T | 1.42 ± 0.079 | 1.34 ± 0.053 |  | 
37 | TAAATTGATATTGC A23G | -0.0394 ± 0.13 | -0.227 ± 0.71 |  | 
38 | TAAATAGATATTGC | -0.222 ± 0.0045 | 1.53 ± 0.13 |  | 
39 | TAAATTGATAAACG | -0.208 ± 0.021 | 0.342 ± 0.21 |  | 
40 | TAAATTGATATAGC | -0.0924 ± 0.038 | 0.0501 ± 0.056 |  | 

Row | Variant | relative integration efficiency (log2) [1] | relative integration efficiency (log2) [2] | relative integration efficiency (log2) [3] | relative integration efficiency (log2) [4]
41 | TAAATTGATATTGC A33T | -0.264 ± 0.0049 | -0.243 ± 0.38 |  | 
42 | TAAATTGATATTGC A33C | 0.00253 ± 0.071 | 0.14 ± 0.18 |  | 
43 | TAAATTGATATTGC A33G | 0.137 ± 0.055 | -0.127 ± 0.057 |  | 
44 | TAAATTGATAGTGC | -0.0439 ± 0.022 | 0.754 ± 0.013 |  | 
45 | TAAATTGATATTGC A35T | -0.27 ± 0.02 | -0.45 ± 0.076 |  | 
46 | TAAATTGATATTGC A35C | -0.0746 ± 0.015 | -0.0637 ± 0.3 |  | 
47 | TAAATTGATATTGC A35G | -0.559 ± 0.067 | -0.531 ± 0.13 |  | 
48 | CG T38C A40G T42A A44T A47T T48A C49T G51C C52A A53G A54T C55T T56G |  |  | -5.99 ± 0.93 | 
49 | CG T5A T6A G7C T8A |  |  | -7.12 ± 1.1 | 
50 | CG T116G G117T |  |  | -0.273 ± 0.045 | -0.146 ± 0.0071
51 | CG G10C A11T T12A G13C |  |  | -0.736 ± 0.86 | 
52 | CG C55A T56G T57G A58C |  |  | -2.14 ± 0.62 | 
53 | CG T112G |  |  | -0.63 ± 0.13 | -0.249 ± 0.13
54 | CG T112A |  |  | -0.304 ± 0.19 | -0.239 ± 0.61
55 | CG T112C |  |  | -0.258 ± 0.13 | -0.138 ± 0.38
56 | CG T120G C121A G122T A123C G124T T125G |  |  | 0.166 ± 0.011 | 0.433 ± 0.18
57 | CG T111G T112G |  |  | -0.622 ± 0.16 | -0.977 ± 0.75
58 | CG T116G G117T A118C A119C T120G C121A G122T A123C G124T T125G |  |  | -0.0959 ± 0.032 | -0.144 ± 0.39
59 | CG T8G T9G |  |  | -6.84 ± 0.88 | 
